Numbering of substitutions follows the chain as printed. Names and notes keep the numbering of the source. Values joined by “and” are separate entries in the source; they are usually repeats but may differ in a detail not shown here. Equal values may be shown once.
T1: gp130 on HepG2 B6 cells (UniProt P40189 23-918, limits assumed)
T1 sequence (looked up): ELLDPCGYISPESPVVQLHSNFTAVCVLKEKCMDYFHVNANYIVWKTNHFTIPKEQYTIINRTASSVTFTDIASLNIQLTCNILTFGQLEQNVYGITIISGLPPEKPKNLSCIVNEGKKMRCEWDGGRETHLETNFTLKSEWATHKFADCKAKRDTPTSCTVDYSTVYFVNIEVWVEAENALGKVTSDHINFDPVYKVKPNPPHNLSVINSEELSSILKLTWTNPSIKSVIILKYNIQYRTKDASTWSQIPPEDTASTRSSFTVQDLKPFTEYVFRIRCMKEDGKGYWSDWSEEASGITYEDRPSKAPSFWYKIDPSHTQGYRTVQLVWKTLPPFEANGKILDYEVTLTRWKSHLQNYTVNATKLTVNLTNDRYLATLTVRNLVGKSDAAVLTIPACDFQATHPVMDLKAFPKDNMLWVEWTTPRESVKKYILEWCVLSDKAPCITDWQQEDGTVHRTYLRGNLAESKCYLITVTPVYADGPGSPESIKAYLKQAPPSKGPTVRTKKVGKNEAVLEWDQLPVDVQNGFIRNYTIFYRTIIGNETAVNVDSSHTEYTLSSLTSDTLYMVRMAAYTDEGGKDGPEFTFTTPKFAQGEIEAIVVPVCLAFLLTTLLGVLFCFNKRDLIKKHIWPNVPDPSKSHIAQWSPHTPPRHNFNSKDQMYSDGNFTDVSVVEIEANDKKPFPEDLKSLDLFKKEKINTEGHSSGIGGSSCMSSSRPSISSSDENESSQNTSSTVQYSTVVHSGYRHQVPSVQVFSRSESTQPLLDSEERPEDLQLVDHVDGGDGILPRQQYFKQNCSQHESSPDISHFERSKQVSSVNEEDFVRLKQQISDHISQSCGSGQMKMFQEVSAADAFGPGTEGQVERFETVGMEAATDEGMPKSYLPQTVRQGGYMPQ

T2: gp130-Fc fusion protein (human, UniProt P40189 23-619)
T2 construct: extracellular domain; not shown: Fc fragment of human IgG1
T2 sequence (looked up): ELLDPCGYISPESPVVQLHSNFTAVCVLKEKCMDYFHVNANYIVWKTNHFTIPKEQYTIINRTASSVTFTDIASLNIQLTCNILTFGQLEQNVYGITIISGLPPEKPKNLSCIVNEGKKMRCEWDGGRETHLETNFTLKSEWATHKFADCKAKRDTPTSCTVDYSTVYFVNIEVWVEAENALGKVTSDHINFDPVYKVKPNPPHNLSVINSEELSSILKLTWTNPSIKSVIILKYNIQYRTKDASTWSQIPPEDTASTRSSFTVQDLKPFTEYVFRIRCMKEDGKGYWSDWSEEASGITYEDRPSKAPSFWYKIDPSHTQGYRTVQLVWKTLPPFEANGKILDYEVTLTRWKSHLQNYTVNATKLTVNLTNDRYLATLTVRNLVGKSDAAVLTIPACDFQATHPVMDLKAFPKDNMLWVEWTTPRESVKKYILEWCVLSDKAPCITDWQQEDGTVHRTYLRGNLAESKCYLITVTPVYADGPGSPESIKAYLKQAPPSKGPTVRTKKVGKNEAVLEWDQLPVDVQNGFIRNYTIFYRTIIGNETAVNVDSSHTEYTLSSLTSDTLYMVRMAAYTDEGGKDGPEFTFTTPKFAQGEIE

B1: OSM-GST mutant L14A (ligand)
chain: AAIGSCSKEYRVLAGQLQKQTDLMQDTSRLLDPYIRIQGLDVPKLREHCRERPGAFPSEETLRGLGRRGFLQTLNATLGCVLHRLADLEQRLPKAQDLERSGLNIEDLEKLQMARPNILGLRNNIYCMAQLLDNSDTAEPTKAGRGASQPPTPTPASDAFQRKLEGCRFLHGYHRFMHSVGRVFSKWGESPNRSRR
notes: Alanine mutant of m4; also called (7)L14A; 7 L14A; not shown: Its linker is left out
B2: OSM-GST mutant P116A (ligand, not shown: a dimerising Fc or GST; large carriers; small tags and cut ends)
chain: B1 chain with A14L, P116A
notes: Alanine mutant of m4; also called (17)P116A; 17 P116A
B3: OSM-GST mutant Y10A (ligand, not shown: a dimerising Fc or GST; large carriers; small tags and cut ends)
chain: B1 chain with Y10A, A14L
notes: Alanine mutant of m4; also called (4)Y10A; 4 Y10A
B4: OSM-GST mutant Y126A (ligand, not shown: a dimerising Fc or GST; large carriers; small tags and cut ends)
chain: B1 chain with A14L, Y126A
notes: Alanine mutant of m4; also called (24)Y126A; 24 Y126A
B5: OSM-GST mutant L119A (ligand, not shown: a dimerising Fc or GST; large carriers; small tags and cut ends)
chain: B1 chain with A14L, L119A
notes: Alanine mutant of m4; also called (19)L119A; 19 L119A
B6: OSM-GST mutant Q25A (ligand, not shown: a dimerising Fc or GST; large carriers; small tags and cut ends)
chain: B1 chain with A14L, Q25A
notes: Alanine mutant of m4; also called (26)Q25A; 26 Q25A
B7: OSM-GST mutant M113A (ligand, not shown: a dimerising Fc or GST; large carriers; small tags and cut ends)
chain: B1 chain with A14L, M113A
notes: Alanine mutant of m4; also called (16)M113; 16 M113A
B8: OSM-GST mutant L17A (ligand)
chain: B1 chain with A14L, L17A
notes: Alanine mutant of m4; also called (10)L17A; 10 L17A; not shown: Its linker is left out
B9: OSM-GST mutant Q130A (ligand, not shown: a dimerising Fc or GST; large carriers; small tags and cut ends)
chain: B1 chain with A14L, Q130A
notes: Alanine mutant of m4; also called (25)Y130A; 25 Q130A
B10: OSM-GST mutant Q18A (ligand)
chain: B1 chain with A14L, Q18A
notes: Alanine mutant of m4; also called (11)Q18A; 11 Q18A; not shown: Its linker is left out
B11: OSM-GST mutant R11A (ligand, not shown: a dimerising Fc or GST; large carriers; small tags and cut ends)
chain: B1 chain with R11A, A14L
notes: Alanine mutant of m4; also called (5)R11A; 5 R11A
B12: OSM-GST mutant N124A (ligand, not shown: a dimerising Fc or GST; large carriers; small tags and cut ends)
chain: B1 chain with A14L, N124A
notes: Alanine mutant of m4; also called (23)N124A; 23 N124A
B13: OSM-GST mutant R122A (ligand, not shown: a dimerising Fc or GST; large carriers; small tags and cut ends)
chain: B1 chain with A14L, R122A
notes: Alanine mutant of m4; also called (21)R122A; 21 R122A
B14: OSM-GST mutant N117A (ligand, not shown: a dimerising Fc or GST; large carriers; small tags and cut ends)
chain: B1 chain with A14L, N117A
notes: Alanine mutant of m4; also called (18)N117A; 18 N117A
B15: OSM-GST mutant T21A (ligand, not shown: a dimerising Fc or GST; large carriers; small tags and cut ends)
chain: B1 chain with A14L, T21A
notes: Alanine mutant of m4; also called (14)T21A; 14 T21A
B16: OSM-GST mutant S7A (ligand, not shown: a dimerising Fc or GST; large carriers; small tags and cut ends)
chain: B1 chain with S7A, A14L
notes: Alanine mutant of m4; also called (1)S7A; 1 S7A

Molecular target: T1, gp130 on HepG2 B6 cells
Assay: cell-based or functional assay

Row | sPAP HepG2 B6 assay: Expt 1 % (EC50 as % of wild type EC50) [%] | sPAP HepG2 B6 assay: Expt 1 EC50 [µg/mL] | sPAP HepG2 B6 assay: Expt 2 % (EC50 as % of wild type EC50) [%] | sPAP HepG2 B6 assay: Expt 2 EC50 [µg/mL] | sPAP HepG2 B6 assay: Mean % of wild type EC50 [%] | sPAP HepG2 B6 assay: Expt 3 % (EC50 as % of wild type EC50) [%] | sPAP HepG2 B6 assay: Expt 3 EC50 [µg/mL] | Binder
1 | 81 | 0.0194 | 77 | 0.0249 | 79 | – | – | B1
2 | 104 | 0.025 | 47 | 0.015 | 75.5 | – | – | B2
3 | 134 | 0.0324 | 256 | 0.082 | 195 | – | – | B3
4 | 386 | 0.093 | 32 | 0.0103 | 175 | 106 | 0.0408 | B4
5 | 115 | 0.0278 | 72 | 0.023 | 93.5 | – | – | B5
6 | 55 | 0.0133 | 41 | 0.013 | 48 | – | – | B6
7 | 106 | 0.0256 | 78 | 0.025 | 92 | – | – | B7
8 | 301 | 0.0727 | 174 | 0.056 | 238 | – | – | B8
9 | 52 | 0.0125 | 26 | 0.0082 | 39 | – | – | B9
10 | 84 | 0.0202 | 68 | 0.0217 | 76 | – | – | B10
11 | 118 | 0.0286 | 86 | 0.0277 | 102 | – | – | B11
12 | 125 | 0.0302 | 113 | 0.0362 | 119 | – | – | B12
13 | 135 | 0.0324 | 43 | 0.0138 | 101 | 124 | 0.0473 | B13
14 | 241 | 0.058 | 132 | 0.0425 | 186 | – | – | B14
15 | 71 | 0.017 | 33 | 0.0105 | 52 | – | – | B15
16 | 50 | 0.012 | 69 | 0.0222 | 59.5 | – | – | B16

Molecular target: T2, gp130-Fc fusion protein
Assay: competition ELISA: OSM-GST titrated against plate-bound wt OSM for gp130-Fc; single experiment
Procedure: (§1) Plates were washed (×6 in PBS 0.05% tween 20, using Skatron Plate washer), tapped dry and blocked to reduce non-specific binding (200 µl/well, 1% BSA/PBS). Following 1 h incubation (room temperature on a shaking platform) the plates were tapped dry and wild type (wt) or mutant OSM-GST from Example 9b added (50 µl/well, 20–0.002 µg/ml, titrated in 1%BSA/PBS). As a positive control polyclonal anti-human OSM antibody (R&D Systems) was also tested (20–0.02 µg/ml). […] Following a 5 h incubation (room temperature on a shaking platform) the plates were washed (×6) and developed using ELISA Amplification System (Life Technologies) as manufacturer's instructions and the OD measured at 490 nm.

Row | IC50 | Binder
17 | 0.66 µg/mL and 0.47 µg/mL and 0.412 µg/mL | B1
18 | 0.232 µg/mL and 0.169 µg/mL and 0.197 µg/mL | B2
19 | 0.32 µg/mL and 0.18 µg/mL and 0.168 µg/mL | B3
20 | 0.386 µg/mL and 0.359 µg/mL and 0.4 µg/mL | B4
21 | 0.272 µg/mL and 0.266 µg/mL and 0.227 µg/mL | B5
22 | 0.042 µg/mL and 0.036 µg/mL and 0.055 µg/mL | B6
23 | 0.511 µg/mL and 0.199 µg/mL and 0.252 µg/mL | B7
24 | 2.21 µg/mL and 1.9 µg/mL and 1.35 µg/mL | B8
25 | 0.145 µg/mL and 0.18 µg/mL and 0.094 µg/mL | B9
26 | 0.32 µg/mL and 0.31 µg/mL and 0.555 µg/mL | B10
27 | 0.181 µg/mL and 0.255 µg/mL and 0.28 µg/mL | B11
28 | 1.63 µg/mL and 1.95 µg/mL and 2.38 µg/mL | B12
29 | 0.14 µg/mL and 0.22 µg/mL and 0.167 µg/mL | B13
30 | 0.983 µg/mL and 0.756 µg/mL and 0.617 µg/mL | B14
31 | 0.108 µg/mL and 0.044 µg/mL and 0.101 µg/mL | B15
32 | 0.199 µg/mL and 0.078 µg/mL and 0.121 µg/mL | B16

Molecular target: T2, gp130-Fc fusion protein
Assay: competition ELISA: OSM-GST titrated against plate-bound wt OSM for gp130-Fc; mean
Procedure: as §1

Row | IC50 [µg/mL] | Binder
33 | 0.514 | B1
34 | 0.199 | B2
35 | 0.223 | B3
36 | 0.382 | B4
37 | 0.255 | B5
38 | 0.044 | B6
39 | 0.321 | B7
40 | 1.82 | B8
41 | 0.14 | B9
42 | 0.395 | B10
43 | 0.239 | B11
44 | 1.99 | B12
45 | 0.176 | B13
46 | 0.785 | B14
47 | 0.084 | B15
48 | 0.133 | B16

From patent publication US6706266, “Oncostatin M antagonists” (SmithKline Beecham Corporation)
